T1: MIPS-160 (Oreochromis mossambicus, UniProt Q1KN76)
T1 construct: full-length CDS from seawater-acclimated gill cDNA, pET24a, 6xHis tag kept (C-terminal in Results, amino-terminal in Methods), E. coli Rosetta 2(DE3)pLysS, 61 kDa
T1 sequence (Q1KN76 1-518): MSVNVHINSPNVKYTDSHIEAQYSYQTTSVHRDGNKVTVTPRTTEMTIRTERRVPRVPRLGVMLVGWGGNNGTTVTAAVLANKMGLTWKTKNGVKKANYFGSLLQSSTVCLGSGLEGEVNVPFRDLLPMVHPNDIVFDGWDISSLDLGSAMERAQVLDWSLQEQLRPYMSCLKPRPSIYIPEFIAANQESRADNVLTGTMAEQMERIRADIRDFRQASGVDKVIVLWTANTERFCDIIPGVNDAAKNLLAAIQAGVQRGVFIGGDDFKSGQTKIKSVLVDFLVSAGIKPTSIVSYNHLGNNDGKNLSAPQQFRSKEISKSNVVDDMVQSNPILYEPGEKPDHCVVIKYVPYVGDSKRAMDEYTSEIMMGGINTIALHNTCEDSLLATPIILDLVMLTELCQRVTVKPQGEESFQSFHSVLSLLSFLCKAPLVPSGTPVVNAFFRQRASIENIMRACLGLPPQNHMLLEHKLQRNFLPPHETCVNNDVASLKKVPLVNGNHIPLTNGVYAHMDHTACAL

B1: IMPase 1 (Oreochromis mossambicus) (protein)
chain: MEDPWQKAYDFAVAVARKAGAEIRKAGESEIRVMTKSSTVDLVTKTDERVEKIIIGSLKEEFGEGTHCFIGEESVAKGEPCILTDKPTWIIDPVDGTTNFVHGFPFVAVSIAFAVNKELEFGVVYSCLEDKMYKARKGKGAFCDNEPIAVSDVKDINRSIIIFEHGTDRSPEKVTKIFFTMQKILCIPVHGLRGSGTAGYKQCLVVIGGSEGVFDIGIHCWDIAAGADIVKEAGGILLDVDGGPFDLMSRRMVSANNETIAKRIIKEIEIFPVVRDDAPIEKK
notes: full-length CDS from seawater-acclimated gill cDNA, pET24a, 6xHis tag kept (C-terminal in Results, amino-terminal in Methods), E. coli Rosetta 2(DE3)pLysS, 32 kDa

Assays:
[1] = biological target: T1, MIPS-160; assay: activity with or without NAD+; assay type: biochemical; conditions: G6P as substrate; 28°C
[2] = substrate: O=P(O)(O)O[C@@H]1[C@H](O)[C@H](O)[C@@H](O)[C@H](O)[C@H]1O; assay: Pi release, BioMol Green, Michaelis-Menten fit; assay type: biochemical, Oreochromis mossambicus; conditions: 50 mM Tris-HCl pH 8.2, 50 mM NaCl, 1 mM MgCl2, 28°C, standard buffer IAB, 220 mOsm
Description: (§1) Pi release, BioMol Green, Michaelis-Menten fit on IMPase 1

[3] = substrate: O=P(O)(O)O[C@@H]1[C@@H](O)[C@H](O)[C@@H](O)[C@H](O)[C@@H]1O; assay: Pi release, BioMol Green, Michaelis-Menten fit; assay type: biochemical, Oreochromis mossambicus; conditions: 50 mM Tris-HCl pH 8.2, 50 mM NaCl, 1 mM MgCl2, 28°C, standard buffer IAB, 220 mOsm
Description: as §1

Row | Molecule | activity with or without NAD+ [1] | Km [2] | Vmax [2] | kcat [2] | kcat/Km [2] | Km [3] | Vmax [3] | kcat [3] | kcat/Km [3]
1 | NC(=O)c1ccc[n+]([C@@H]2O[C@H](COP(=O)(O)OP(=O)(O)OC[C@H]3O[C@@H](n4cnc5c(N)ncnc54)[C@H](O)[C@@H]3O)[C@@H](O)[C@H]2O)c1 [NAD^+] | MIPS-160 activity depends on NAD^+ (Fig 5B) |  |  |  |  |  |  |  | 
2 | B1 |  | 538 ± 74 µM | 0.0073 ± 0.0007 nmol/s | 2.585 ± 0.112 s⁻¹ | 4800 ± 1100 M⁻¹ s⁻¹ | 930 ± 350 µM | 0.0027 ± 0.0006 nmol/s | 0.962 ± 0.102 s⁻¹ | 1050 ± 200 M⁻¹ s⁻¹

From article PMC4466255, “Direct Ionic Regulation of the Activity of Myo-Inositol Biosynthesis Enzymes in Mozambique Tilapia” (PLoS ONE, 2015)
